From the supplement of paper PMC9876800

Test system: peptide library, one residue held at a place counted from the S/T acceptor
Test: relative phosphorylation of the sub-library (ratio to the mean residue at this position); higher = residue favoured
Settings: human
How it was run: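 Purified recombinant kinases, either human or orthologue constructs, were incubated in 384-well plates with biotinylated degenerate peptide sub-libraries. Each sub-library fixed one residue at one position around a central Ser/Thr. Peptides at 50 μM and 50 μM ATP spiked with γ-32P-ATP were used for 90 min under kinase-specific conditions, and spots on streptavidin membranes were phosphorimaged and quantified by densitometry. Relative sub-library phosphorylation is expressed as a ratio to the mean residue at that position.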

Chain of DAPK1, construct: aa1-363 (P53355 1-363, looked up): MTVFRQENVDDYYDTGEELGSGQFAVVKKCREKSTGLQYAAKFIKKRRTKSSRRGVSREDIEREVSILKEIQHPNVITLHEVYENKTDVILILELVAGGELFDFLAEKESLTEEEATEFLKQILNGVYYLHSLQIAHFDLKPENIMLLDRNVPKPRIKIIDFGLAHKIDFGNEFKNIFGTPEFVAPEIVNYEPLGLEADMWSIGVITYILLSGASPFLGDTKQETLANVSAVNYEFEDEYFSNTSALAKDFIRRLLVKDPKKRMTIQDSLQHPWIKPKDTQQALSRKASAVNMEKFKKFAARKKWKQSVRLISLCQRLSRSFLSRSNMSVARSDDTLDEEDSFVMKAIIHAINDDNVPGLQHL
Chain of DSTYK, construct: Full length (Q6XUX3 whole entry, looked up): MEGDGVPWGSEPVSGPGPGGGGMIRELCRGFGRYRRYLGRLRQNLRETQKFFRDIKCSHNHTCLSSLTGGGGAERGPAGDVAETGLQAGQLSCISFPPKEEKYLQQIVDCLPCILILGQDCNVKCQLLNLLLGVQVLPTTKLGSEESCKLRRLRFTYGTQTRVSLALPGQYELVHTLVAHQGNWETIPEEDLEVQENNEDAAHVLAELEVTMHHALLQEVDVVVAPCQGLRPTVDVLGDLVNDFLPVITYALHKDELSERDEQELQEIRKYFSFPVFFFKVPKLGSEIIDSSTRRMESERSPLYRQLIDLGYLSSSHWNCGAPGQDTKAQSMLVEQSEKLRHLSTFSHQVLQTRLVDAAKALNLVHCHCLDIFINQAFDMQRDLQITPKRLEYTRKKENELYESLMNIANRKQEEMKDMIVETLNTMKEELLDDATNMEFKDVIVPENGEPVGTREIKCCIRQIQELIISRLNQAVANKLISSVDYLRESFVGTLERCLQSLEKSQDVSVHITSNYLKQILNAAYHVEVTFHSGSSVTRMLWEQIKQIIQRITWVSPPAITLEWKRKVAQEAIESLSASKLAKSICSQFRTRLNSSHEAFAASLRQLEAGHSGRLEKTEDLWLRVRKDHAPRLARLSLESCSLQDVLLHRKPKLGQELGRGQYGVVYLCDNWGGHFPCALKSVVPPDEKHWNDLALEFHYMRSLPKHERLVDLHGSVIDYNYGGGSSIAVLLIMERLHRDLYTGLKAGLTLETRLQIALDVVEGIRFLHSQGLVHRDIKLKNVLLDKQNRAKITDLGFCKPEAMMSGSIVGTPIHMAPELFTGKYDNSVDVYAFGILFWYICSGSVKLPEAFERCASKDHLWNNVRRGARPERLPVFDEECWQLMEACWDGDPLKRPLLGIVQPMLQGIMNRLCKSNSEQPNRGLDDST

DAPK1, construct: aa1-363 (from UniProt P53355)
relative phosphorylation
Settings | at +1 | at +2 | at +3 | at +4 | at -1 | at -2 | at -3 | at -4 | at -5
A fixed | 0.752 | 0.793 | 0.813 | 0.817 | 0.743 | 1.27 | 0.626 | 0.975 | 0.91
D fixed | 1.81 | 0.767 | 0.98 | 0.853 | 0.83 | 0.333 | 0.336 | 0.665 | 0.58
E fixed | 1.76 | 0.953 | 0.979 | 0.857 | 0.63 | 0.347 | 0.374 | 0.82 | 0.622
F fixed | 0.867 | 0.998 | 0.999 | 1.13 | 0.771 | 0.4 | 0.45 | 0.844 | 0.773
G fixed | 1.06 | 0.651 | 0.978 | 0.935 | 0.847 | 0.662 | 0.62 | 0.937 | 1.03
H fixed | 0.714 | 0.936 | 1 | 1.45 | 1.24 | 0.987 | 0.754 | 1 | 1.05
I fixed | 0.877 | 1.05 | 1.95 | 0.913 | 0.701 | 0.308 | 0.418 | 0.871 | 0.955
K fixed | 0.476 | 0.717 | 0.665 | 0.72 | 1.35 | 1.38 | 2.1 | 1.63 | 1.67
L fixed | 0.792 | 1.92 | 1.39 | 0.777 | 1.18 | 0.354 | 0.385 | 0.796 | 1.02
M fixed | 1.12 | 1.71 | 1.04 | 1.01 | 1.14 | 0.387 | 0.421 | 0.959 | 0.954
N fixed | 1.47 | 0.871 | 0.818 | 0.985 | 1.4 | 0.672 | 0.483 | 0.93 | 0.842
P fixed | 0.353 | 0.724 | 0.693 | 0.994 | 1.04 | 0.338 | 0.558 | 0.677 | 0.756
Q fixed | 2.1 | 1.03 | 0.767 | 0.816 | 1.06 | 0.742 | 0.632 | 1.03 | 0.828
R fixed | 0.659 | 1.06 | 0.832 | 0.912 | 1.64 | 7.29 | 7.46 | 2.31 | 2.36
V fixed | 0.821 | 0.912 | 1.3 | 0.792 | 0.691 | 0.345 | 0.297 | 0.77 | 0.722
W fixed | 0.698 | 0.827 | 0.856 | 1.7 | 0.695 | 0.732 | 0.592 | 0.856 | 0.73
Y fixed | 0.68 | 1.08 | 0.936 | 1.33 | 1.05 | 0.46 | 0.502 | 0.928 | 1.2
pThr fixed | 3.07 | 1.42 | 1.26 | 1.87 | 0.889 | 0.618 | 0.741 | 0.996 | 1.17
pTyr fixed | 1.87 | 1.41 | 2.43 | 1.56 | 1.33 | 0.71 | 0.721 | 0.94 | 1.15

DSTYK, construct: Full length (from UniProt Q6XUX3)
relative phosphorylation
Settings | at +1 | at +2 | at +3 | at +4 | at -1 | at -2 | at -3 | at -4 | at -5
A fixed | 0.815 | 1.14 | 0.976 | 1.07 | 1.15 | 0.947 | 0.937 | 1.05 | 1.27
D fixed | 0.5 | 0.992 | 0.68 | 0.984 | 1.7 | 2.48 | 1.41 | 1.8 | 1.74
E fixed | 0.639 | 1.52 | 0.934 | 1.05 | 2 | 2.13 | 0.887 | 1.52 | 1.43
F fixed | 1.11 | 0.465 | 1.04 | 0.754 | 0.584 | 0.828 | 2.04 | 1.12 | 0.944
G fixed | 1.19 | 0.729 | 0.872 | 1.12 | 0.813 | 1.11 | 0.697 | 1.34 | 1.31
H fixed | 0.834 | 1.08 | 1.25 | 0.955 | 0.924 | 1.15 | 1.02 | 0.96 | 1.12
I fixed | 1.52 | 0.48 | 0.915 | 0.663 | 0.577 | 0.701 | 1.07 | 0.721 | 0.619
K fixed | 0.434 | 1.85 | 1.09 | 1.29 | 0.93 | 0.366 | 0.453 | 0.718 | 1.05
L fixed | 1.54 | 0.461 | 1.1 | 0.754 | 0.97 | 1.25 | 1.7 | 0.862 | 0.732
M fixed | 1.55 | 0.667 | 0.977 | 0.837 | 0.911 | 1.1 | 1.36 | 0.744 | 0.698
N fixed | 0.878 | 1.3 | 0.83 | 1.11 | 1.48 | 1.03 | 0.676 | 0.908 | 0.935
P fixed | 0.218 | 0.587 | 0.738 | 1.45 | 0.324 | 0.228 | 0.513 | 0.777 | 0.916
Q fixed | 1.21 | 1.29 | 1.02 | 1.15 | 1.31 | 1.04 | 0.692 | 0.793 | 0.773
R fixed | 0.499 | 2.58 | 1.3 | 1.23 | 1.2 | 0.467 | 0.471 | 0.639 | 0.835
V fixed | 1.65 | 0.685 | 1.08 | 0.734 | 0.667 | 0.765 | 0.6 | 0.598 | 0.733
W fixed | 0.993 | 0.595 | 1.09 | 1.04 | 0.682 | 0.717 | 1.29 | 1.63 | 1.17
Y fixed | 1.41 | 0.569 | 1.11 | 0.797 | 0.774 | 0.69 | 1.19 | 0.819 | 0.722
pThr fixed | 1.23 | 1.43 | 0.787 | 1.09 | 0.845 | 1.66 | 0.996 | 1.03 | 1.04
pTyr fixed | 2.22 | 0.801 | 0.882 | 0.912 | 1.84 | 1.21 | 1.13 | 0.961 | 1.09

DYRK2, construct: Full length (from UniProt Q92630)
relative phosphorylation
Settings | at +1 | at +2 | at +3 | at +4 | at -1 | at -2 | at -3 | at -4 | at -5
A fixed | 0.832 | 1.06 | 0.927 | 0.956 | 1.27 | 2.04 | 0.9 | 0.971 | 1.08
D fixed | 0.164 | 1.08 | 0.82 | 1.14 | 0.655 | 0.308 | 0.592 | 0.84 | 0.894
E fixed | 0.214 | 0.977 | 0.792 | 0.8 | 0.788 | 0.307 | 0.529 | 0.922 | 0.857
F fixed | 0.209 | 0.977 | 0.929 | 1.23 | 0.7 | 0.518 | 0.457 | 0.843 | 1.03
G fixed | 0.62 | 0.756 | 1.59 | 1.17 | 1.17 | 0.984 | 1.78 | 1.05 | 1.16
H fixed | 0.227 | 0.923 | 0.915 | 0.967 | 0.948 | 0.562 | 0.796 | 0.894 | 1.14
I fixed | 0.368 | 1.26 | 0.8 | 0.996 | 0.702 | 0.897 | 0.571 | 0.843 | 0.833
K fixed | 0.357 | 0.502 | 0.548 | 0.832 | 1.12 | 0.495 | 0.756 | 0.859 | 0.859
L fixed | 0.307 | 1.45 | 1.1 | 0.987 | 0.823 | 0.98 | 0.635 | 0.861 | 0.878
M fixed | 0.314 | 1.48 | 1.05 | 1.22 | 1.16 | 0.915 | 0.608 | 0.969 | 0.843
N fixed | 0.304 | 1.08 | 0.838 | 0.928 | 0.877 | 0.781 | 0.691 | 0.771 | 0.846
P fixed | 9.47 | 0.703 | 2.79 | 1.16 | 1.68 | 2.97 | 0.988 | 1.26 | 0.99
Q fixed | 0.466 | 1.1 | 0.893 | 0.992 | 1.05 | 0.597 | 0.735 | 0.826 | 0.819
R fixed | 1.99 | 0.629 | 0.707 | 0.778 | 1.5 | 2.44 | 5.23 | 2.46 | 1.69
V fixed | 0.772 | 1.23 | 0.682 | 0.918 | 0.898 | 1.28 | 0.573 | 0.781 | 0.833
W fixed | 0.193 | 0.958 | 0.902 | 0.984 | 0.627 | 0.487 | 0.571 | 0.997 | 1.01
Y fixed | 0.195 | 0.829 | 0.72 | 0.932 | 1.04 | 0.444 | 0.588 | 0.853 | 1.24
pThr fixed | 0.399 | 1.77 | 0.745 | 1.28 | 0.415 | 0.56 | 0.647 | 1.03 | 1.03
pTyr fixed | 0.476 | 0.786 | 0.709 | 0.928 | 0.953 | 0.452 | 0.79 | 1.19 | 1.19

DYRK3, construct: Full length (from UniProt O43781)
relative phosphorylation
Settings | at +1 | at +2 | at +3 | at +4 | at -1 | at -2 | at -3 | at -4 | at -5
A fixed | 0.74 | 0.843 | 0.891 | 0.767 | 1.14 | 1.24 | 0.635 | 0.856 | 0.845
D fixed | 0.16 | 0.894 | 0.621 | 0.723 | 0.447 | 0.181 | 0.404 | 0.698 | 0.663
E fixed | 0.175 | 0.758 | 0.613 | 0.713 | 0.554 | 0.207 | 0.368 | 0.747 | 0.656
F fixed | 0.266 | 1.19 | 1.12 | 1.31 | 0.777 | 0.378 | 0.422 | 0.876 | 1.07
G fixed | 0.732 | 0.679 | 1.47 | 1.07 | 1.13 | 0.719 | 1.59 | 1.01 | 0.936
H fixed | 0.3 | 1.2 | 1.27 | 1.16 | 0.991 | 0.556 | 0.621 | 0.945 | 1.12
I fixed | 0.513 | 1.33 | 0.817 | 0.973 | 0.709 | 0.643 | 0.418 | 0.905 | 1.05
K fixed | 0.494 | 0.7 | 0.727 | 0.926 | 1.42 | 0.746 | 0.92 | 1.1 | 1.11
L fixed | 0.329 | 1.41 | 1.23 | 0.916 | 0.882 | 0.651 | 0.444 | 0.887 | 0.892
M fixed | 0.337 | 1.41 | 1.21 | 1.35 | 1.22 | 0.67 | 0.467 | 0.903 | 0.84
N fixed | 0.289 | 0.883 | 0.777 | 0.919 | 0.783 | 0.555 | 0.473 | 0.71 | 0.809
P fixed | 8.02 | 0.703 | 1.93 | 0.889 | 1.27 | 1.93 | 0.514 | 0.886 | 0.898
Q fixed | 0.442 | 0.889 | 0.834 | 0.932 | 1 | 0.583 | 0.518 | 0.688 | 0.742
R fixed | 2.71 | 1.05 | 1.09 | 1.13 | 2.12 | 6.5 | 7.91 | 3.23 | 2.49
V fixed | 0.987 | 1.1 | 0.661 | 0.785 | 0.726 | 0.724 | 0.357 | 0.664 | 0.716
W fixed | 0.257 | 0.91 | 0.887 | 1.38 | 0.64 | 0.386 | 0.473 | 0.964 | 0.942
Y fixed | 0.242 | 1.04 | 0.858 | 1.06 | 1.18 | 0.336 | 0.473 | 0.928 | 1.21
pThr fixed | 0.328 | 1.44 | 0.549 | 0.977 | 0.353 | 0.349 | 0.492 | 0.812 | 0.954
pTyr fixed | 0.363 | 0.759 | 0.769 | 0.815 | 0.735 | 0.287 | 0.542 | 0.74 | 1.15
